Experimental data from patent publication US20230242615A1.

Biological target: IL4Rα on TF1 cells (UniProt P24394)
Assay: cell-based or functional assay

B1: Dupilumab (antibody, INN chains, looked up, V domains shown)
VH: EVQLVESGGGLEQPGGSLRLSCAGSGFTFRDYAMTWVRQAPGKGLEWVSSISGSGGNTYYADSVKGRFTISRDNSKNTLYLQMNSLRAEDTAVYYCAKDRLSITIRPRYYGLDVWGQGTTVTVSS
VL: DIVMTQSPLSLPVTPGEPASISCRSSQSLLYSIGYNYLDWYLQKSGQSPQLLIYLGSNRASGVPDRFSGSGSGTDFTLKISRVEAEDVGFYYCMQALQTPYTFGQGTKLEIKR
B1 was tested, and the IC50 (nM) Blocking IL4, TF-1 cell proliferation was 3.1 nM, the IC50 (nM) Blocking IL13, TF-1 cell proliferation was 20.5 nM and the Relative activity (blocking IL4, against Dupilumab) was 1 fold. For the same binder, the Relative activity (blocking IL13, against Dupilumab) was 1 fold.
